Test results reported in patent US20100092460A1 (Ablynx, published 2010).

B8: CCL5 (ligand, UniProt P13501 24-91, looked up)
chain: SPYSSDTTPCCFAYIARPLPRAHIKEYFYTSGKCSNPAVVFVTRKNRQVCANPEKKWVREYINSLEMS
modifications: also: 125I label, position not given here
notes: also called RANTES
B9: recombinant human CXCL11/I-TAC (ligand, UniProt O14625 22-94, looked up)
chain: FPMFKRGRCLCIGPGVKAVKVADIEKASIMYPSNNCDKIEVIITLKENKGQRCLNPKSKQARLIIKKVERKNF
modifications: biotinylated in the ELISA; 125I label in the radioligand assays

Columns and labels:
CCL5 [1] = biological target: B8; assay: inhibition of 125I-CCL5 (56 pM) binding to CCR1 on HEK293T cells; radioligand preincubated with purified Nanobody
[2] = biological target: T1, recombinant human CCL2/MCP1 (human, UniProt P13500 24-99, 125I label in the radioligand assays); assay: inhibition of 125I-CCL2 binding to hCCR2 (HEK293T cells), purified Nanobody and 10x diluted extract
T1 construct: Immunogen and selection antigen was the Mucin stalk Chimera (R&D 979-MC/CF)
T1 sequence (P13500 24-99 limits assumed): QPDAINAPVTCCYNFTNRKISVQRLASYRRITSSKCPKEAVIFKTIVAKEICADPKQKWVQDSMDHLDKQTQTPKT

[3] = biological target: B9; assay: inhibition of 125I-CXCL11 binding to hCXCR3 (HEK293T cells), 10x diluted periplasm; ELISA grade at the label
[4] = biological target: T1, recombinant human CCL2/MCP1; assay: inhibition of 125I-CCL2 binding to hCCR2 (HEK293T cells), 10x diluted extract
[5] = biological target: B9; assay: inhibition of 125I-CXCL11 binding to hCXCR3 (HEK293T cells), purified Nanobody
[6] = biological target: T2, recombinant human CCL5/RANTES (Mucin stalk Chimera) (human, UniProt P13501 24-91, biotinylated in the ELISA); assay: ELISA, periplasmic extract on biotinylated mucin-CCL5 on neutravidin, anti-myc detection
T2 construct: also called mucin-CCL5; not shown: mucin stalk of the chimera (R&D 978-RN/CF); origin, limits and order not described
T2 sequence (looked up): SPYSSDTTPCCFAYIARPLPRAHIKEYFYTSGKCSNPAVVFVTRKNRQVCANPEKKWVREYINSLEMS

CCL5 [7] = biological target: B8; assay: inhibition of 125I-CCL5 binding to hCCR1 (HEK293T cells), purified Nanobody
hCCR1 = biological target: T3, hCCR1 (human, UniProt P32246 1-355); assay: competition of unlabeled CCL5 with 125I-CCL5 on HEK293T cells with hCCR1
T3 construct: whole, on cells
T3 sequence (looked up): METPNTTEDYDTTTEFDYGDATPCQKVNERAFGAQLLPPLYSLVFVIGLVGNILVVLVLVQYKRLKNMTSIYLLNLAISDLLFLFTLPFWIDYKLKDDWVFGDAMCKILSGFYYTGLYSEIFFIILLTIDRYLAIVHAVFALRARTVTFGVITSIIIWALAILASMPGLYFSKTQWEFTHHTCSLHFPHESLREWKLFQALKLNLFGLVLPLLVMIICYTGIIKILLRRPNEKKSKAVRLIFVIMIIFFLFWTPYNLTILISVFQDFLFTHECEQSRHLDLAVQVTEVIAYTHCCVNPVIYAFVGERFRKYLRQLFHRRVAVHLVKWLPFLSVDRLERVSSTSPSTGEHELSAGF

hCXCR3 = biological target: T4, hCXCR3 (human, UniProt P49682 1-368); assay: competition of unlabeled CXCL11 with 125I-CXCL11 on HEK293T cells with hCXCR3
T4 construct: whole, on cells
T4 sequence (looked up): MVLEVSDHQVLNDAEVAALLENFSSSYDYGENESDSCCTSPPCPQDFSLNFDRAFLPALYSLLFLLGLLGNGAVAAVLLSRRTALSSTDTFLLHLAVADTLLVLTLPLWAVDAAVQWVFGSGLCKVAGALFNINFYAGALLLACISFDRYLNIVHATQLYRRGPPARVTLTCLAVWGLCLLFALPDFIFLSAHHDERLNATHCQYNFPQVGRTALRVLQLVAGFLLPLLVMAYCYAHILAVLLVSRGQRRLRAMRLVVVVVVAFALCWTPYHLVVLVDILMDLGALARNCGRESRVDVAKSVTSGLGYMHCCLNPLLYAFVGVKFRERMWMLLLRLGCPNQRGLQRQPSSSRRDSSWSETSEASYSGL

[8] = biological target: T5, recombinant human CXCL12/SDF1alpha (human, UniProt P48061-2 22-89, biotinylated in the ELISA; 125I label in the radioligand assays); assay: cell-based or functional assay
T5 sequence (P48061 22-89 limits assumed): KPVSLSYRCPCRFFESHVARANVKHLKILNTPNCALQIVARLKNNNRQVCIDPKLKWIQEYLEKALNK

[9] = biological target: T5, recombinant human CXCL12/SDF1alpha; assay: inhibition of 125I-CXCL12 (57 pM) binding to CXCR4 on HEK293T cells; radioligand preincubated with purified Nanobody; total binding data
[10] = biological target: T5, recombinant human CXCL12/SDF1alpha; assay: inhibition of 125I-CXCL12 (57 pM) binding to CXCR4 on HEK293T cells; specific-binding data

B1: Nanobody 17B11 (VHH)
VHH: EVQLVESGGGLVQAGGSLRLSCAASGFNFDDYAIGWFRQAPGKEREGVSCISSSDGSTYSADSVKGRFTISSDNAKNTVYLQMNNLNPEDTAAYYCAAAPPDCTYYPATPIYYWGQGTQVTVSS
notes: llama VHH against CCL5; purified; not shown: C-terminal c-myc tag and (His)6 tag coded by the vector
CCL5 [1]
  pIC50: 9

B2: Nanobody 16C1 (VHH)
VHH: EVQLVESGGGLVQAGGSLRLSCAASGRTFSSYVMGWFRQAPGKEREFVAAIRWSGGSTYYADSVKGRFTISRDNAKNTVYLQMNSLKPEDTAVYYCAADLLGDSDYEPSSGFGSWGQGTQVTVSS
notes: llama VHH against CCL2; not shown: C-terminal c-myc tag and (His)6 tag coded by the vector
[2]
  binding result: binds

B3: Nanobody 11A7 (VHH)
VHH: EVQLVESGGGLVQAGGSLRLSCAASGFTFDDYAIGWFRQAPGKEREGVSIISSSDGSTYYADSVKGRFTISSDNAKNTVYLQMNSLKPEDTAVYYCAAGQGWVIATMTSFRAHREYDYWGQGTQVTVSS
notes: llama VHH against CXCL11; also called 11E10; 11E11; not shown: C-terminal c-myc tag and (His)6 tag coded by the vector
[3]
  binding result: binds

B4: Nanobody 10C8 (VHH)
VHH: EVQLVESGGGLVQAGDSLRLSCATSGRTFTMDGMGWFRQAPGKEREFVATISRSGVGTFYADSVKGRFTISRDNAKNMVYLQMNSLKPEDTALYYCAARPDYTLGTSSYDYDSWGQGTQVTVSS
notes: llama VHH against CCL5; purified; also called 10D8; 10E9; not shown: C-terminal c-myc tag and (His)6 tag coded by the vector
CCL5 [1]
  pIC50: 9.3

B5: Nanobody 16D5 (VHH)
VHH: EVQLVESGGGLVQAGGSLRLSCAASGFTFDDYAIAWFRQAPGKEREVVSCISSSDGSTYYADSVKGRFTISSDNAKNTVFLQMNSLKPEDTAVYYCAAVSNCPRDSDYIPYLHYWWGQGTQVTVSS
notes: as for B2
[4]
  binding result: binds

B6: Nanobody 11G9 (VHH)
VHH: EVQLVESGGGLVQPGGSLRLSCAASGGTLDDYVIGWFRQAPGKEREGVSCISSTDGSTYYADSVKGRFTISRDNAKNTVYLQVNSLKPEDTAVYYCAAGMGVLRQWALSKLSYDYWGQGTQVTVSS
notes: llama VHH against CXCL11; not shown: C-terminal c-myc tag and (His)6 tag coded by the vector
[5]
  binding result: binds

B7: Nanobody 10H3 (VHH)
VHH: EVQLVESGGGLVQAGGSLRLSCAASGRTFSTYVMGWFRQAPGKEREFVAGITSSIGVTRYAGSVQDRFTISKDNAKNTVFLQMNSLKPEDTADYYCAARPDYYISINPVAYPYWGQGTQVTVSS
notes: as for B1
[6]
  binding result: binds
CCL5 [7]
  binding result: binds

## B8
hCCR1
  binding result: binds

## B9
hCXCR3
  binding result: binds

B10: Nanobody 12A4 (VHH)
VHH: EVQLVESGGGLVQPGGSLRLSCAASGFTLDDYAIGWFRQAPGKEREGVSCINSNDGNTYYADSVKGRFTISRDNAKSTVYLQMNSLKPDDTAVYYCAAEAMGYCSAYGSFEGYWGQGTQVTVSS
notes: llama VHH against CXCL12; purified; also called 12C1; 12E4; not shown: C-terminal c-myc tag and (His)6 tag coded by the vector
[8]
  inhibition of CXCL12-induced PLC activation (3H-inositol phosphate accumulation, HEK293T cells with CXCR4 and G-alpha-qi5), pIC50: 7.2
[9]
  pIC50: 8.7
[10]
  pIC50: 9.1
